Assay results reported in the RNAGym collection of RNA variant scans (doi:10.7554/elife.90254).

B1: OR4K15 (parent)
chain: GUUAACGGUCAUAGGCCAUGGAAACUAGGAGCACCAUUUCGCUGCCAGUGAAGAAAUGAACAAAGAAAAUCUGGGCCAGGCAGGCAUCAAAAGAAAUAGUCUUGCGCUCAACCAGAAAGUCUGUAAUCAUUUUAAGGGUA

Variants of: B1
Test: self-cleavage, relative activity (ratio to wild type); higher = more cleavage; in vitro, sequencing; the parent is a self-cleaving ribozyme

Row | Variant | self-cleavage
1 | A18G A69G | 1.9
2 | A67U | 1.54
3 | C40U U103A | 1.28
4 | A67G A95G | 2.37
5 | U2A A114G | 0.67
6 | A90G U120C | 0.58
7 | G41A A82U | 0.14
8 | A11G U72C | 0.21
9 | A30G U120C | 1.04
10 | A62C A134G | 1.15
11 | A68G A118G | 0.77
12 | U19C A114C | 0.06
13 | A27G A68U | 1.1
14 | A63U A140U | 1.52
15 | A4G A36G | 1.43
16 | A78G A90C | 0.12
17 | U12C A30U | 1.21
18 | A11G U132C | 1.21
19 | A62G U139C | 1.62
20 | A78G A129G | 0
21 | A27U U120C | 0.85
22 | U19A C35A | 0.65
23 | A24G A118U | 0.51
24 | U108A A125G | 0

Row | Variant | self-cleavage
25 | A60G A64U | 1.46
26 | A59U A117C | 0.63
27 | U2C A78U | 0.09
28 | A23U A126G | 0.96
29 | A116G G123A | 0.19
30 | A18G U122C | 1.32
31 | A22G U122G | 1.67
32 | A55C U87C | 0.47
33 | U97G U127C | 0.49
34 | A5G A60U | 1.08
35 | A22G C42U | 1.45
36 | A91U A125G | 0.38
37 | A22G U131C | 0.51
38 | A63C A126U | 1.62
39 | G44U G137U | 1.87
40 | A56U U122A | 1.31
41 | C32U C105U | 0.18
42 | G58A A118G | 0.52
43 | U49A U103C | 0.93
44 | A11G A52G | 1.03
45 | A67G A129C | 1.2
46 | A22G G137A | 1.63
47 | A30G U124A | 0.78
48 | A55G A86C | 1.66

Row | Variant | self-cleavage
49 | A13U C35A | 1.88
50 | U9C C81U | 0.36
51 | A13G A95G | 1
52 | A33C A111G | 0.03
53 | U12A A116G | 0.49
54 | U2G A111G | 0
55 | A59G U87C | 1.19
56 | A36U A78C | 0.23
57 | U38C A114U | 0.15
58 | C85U A117G | 1.16
59 | A54G A82C | 0.13
60 | A23U A24G | 1.15
61 | A94U A111U | 0.12
62 | G50U U132C | 1.23
63 | A134U | 1.26
64 | A95G U97C | 1.23
65 | C76U A94G | 0.13
66 | U97A A114G | 0.64
67 | A18U U133C | 2.02
68 | A60C A82G | 0.28
69 | U72C U120C | 0.15
70 | A24U U37C | 1.82
71 | A33U A110U | 1.71
72 | U12C A82G | 0.76

Row | Variant | self-cleavage
73 | A118G G123A | 0.58
74 | U2C C16U | 0.69
75 | U38C G83U | 0.43
76 | U57A | 0.69
77 | U19C A36G | 2.03
78 | U39C A114G | 0.72
79 | U49C U97C | 1.29
80 | A24U A78G | 0.38
81 | U3C C77U | 0.69
82 | U72C U103A | 0.08
83 | U57A U103C | 0.22
84 | A60G U103G | 0.05
85 | U49A U100C | 2.15
86 | A66U U139A | 2.31
87 | A125U U132C | 1.97
88 | A5U A90G | 0.78
89 | A94G C105U | 0.38
90 | A67G C101A | 0.19
91 | U39C A96G | 1.77
92 | A62U A78U | 0.33
93 | A94G A126U | 1.08
94 | A94G U103C | 0.69
95 | U2C A135U | 0.5
96 | C45A A114G | 0.06

Row | Variant | self-cleavage
97 | A23G A52U | 1.69
98 | C76G A82U | 0.22
99 | A51G A91C | 1.97
100 | C40A A51G | 1.81
101 | U2A C77U | 1.39
102 | U9C A36U | 1.48
103 | A60U A89U | 1.68
104 | U124A | 0.69
105 | C34U U49C | 1.17
106 | A54C A68G | 1.03
107 | U39A U122C | 1.39
108 | A54G G74U | 0.11
109 | U108C A135U | 0.01
110 | A30G A90U | 1.68
111 | A66G A135G | 0.47
112 | C25U A86U | 0.61
113 | U103C U132C | 0.85
114 | A4U A96G | 1.05
115 | A36G A117G | 2.27
116 | U26C G44U | 1.99
117 | G53C | 1.74
118 | A27U U132C | 1.39
119 | C40U A63G | 2.13
120 | A11U U12C | 0.97

Row | Variant | self-cleavage
121 | G15A U43C | 1.35
122 | C6U G106U | 0.06
123 | U57C U127A | 1.19
124 | A59C U103C | 0.57
125 | C112U U122C | 0.01
126 | A82U A110G | 0.04
127 | A24G U57C | 1.51
128 | A22G A67G | 1.16
129 | U19C A89G | 1.5
130 | U70C A116U | 0.34
131 | A4C A24G | 0.75
132 | U19C U131C | 1.14
133 | C16U A94U | 1.89
134 | U103C U139C | 1.15
135 | U103C U139A | 1.06
136 | U37A A66G | 1.72
137 | U38G A62C | 0.78
138 | A22G A68C | 0.64
139 | A4G U102C | 1.36
140 | G7A A111U | 0.04
141 | A98G G99U | 1.42
142 | U72G U103C | 0.07
143 | A67G A68G | 1.5
144 | A69G C109A | 0.37

Row | Variant | self-cleavage
145 | A54U A95G | 2.47
146 | A111G U122G | 0.01
147 | A64G A118C | 0.2
148 | A22G U120C | 0.98
149 | A11G A118G | 1.02
150 | U12A G31A | 1.75
151 | A18G A33U | 1.92
152 | U124G A129C | 0.33
153 | U38C A66G | 1.97
154 | A59U A96U | 0.97
155 | C10U A94G | 1.27
156 | G7A A23G | 0.87
157 | G53U A54U | 1.67
158 | C16U G137A | 0.85
159 | U26C U38C | 1.45
160 | U70C A140U | 0.96
161 | U87C U122A | 1.32
162 | A62G A95G | 2.2
163 | A63G U124A | 0.72
164 | U57C U131C | 0.94
165 | A64U U127C | 1.66
166 | U3C A60G | 0.93
167 | U12A U38C | 1.4
